{"source": "patent US20240261333A1", "about": "(published 2024)", "key": {"IMMT": {"molecular_target": "T1, IMMT (human, UniProt Q16891-4 34-757, limits assumed)", "T1 construct": "also called NP_001093639.1 (+3)", "T1 sequence (looked up)": "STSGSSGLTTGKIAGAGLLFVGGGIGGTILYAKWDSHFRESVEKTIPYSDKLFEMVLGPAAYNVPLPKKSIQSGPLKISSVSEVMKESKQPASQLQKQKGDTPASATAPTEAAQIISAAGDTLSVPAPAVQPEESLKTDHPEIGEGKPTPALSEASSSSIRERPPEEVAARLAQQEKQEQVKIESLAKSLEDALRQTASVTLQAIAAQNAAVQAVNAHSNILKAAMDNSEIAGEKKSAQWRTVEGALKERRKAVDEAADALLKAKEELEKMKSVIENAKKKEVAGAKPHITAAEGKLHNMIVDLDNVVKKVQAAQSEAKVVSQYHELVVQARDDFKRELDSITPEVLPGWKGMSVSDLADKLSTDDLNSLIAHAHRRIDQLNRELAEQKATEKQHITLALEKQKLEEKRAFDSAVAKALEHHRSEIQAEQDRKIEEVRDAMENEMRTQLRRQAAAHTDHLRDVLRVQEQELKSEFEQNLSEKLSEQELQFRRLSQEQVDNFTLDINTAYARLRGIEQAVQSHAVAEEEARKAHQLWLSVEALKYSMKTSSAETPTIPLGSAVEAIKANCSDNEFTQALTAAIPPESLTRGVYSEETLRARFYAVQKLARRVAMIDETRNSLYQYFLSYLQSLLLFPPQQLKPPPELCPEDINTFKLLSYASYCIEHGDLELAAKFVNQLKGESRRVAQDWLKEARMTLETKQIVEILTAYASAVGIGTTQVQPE", "assay": "co-IP with anti-FLAG, C-FLAG B3GNT2, mass spectrometry", "experimental": "(§1) Cells were plated in 10-cm cell culture dishes and grown to 60-80% confluency. For each condition, two biological replicates were harvested for co-IP. Cells were washed with PBS and 4 mL of lysis buffer (20 mM HEPES, 1% Triton X-100, 150 mM NaCl, 1 mM EDTA, and 10% glycerol) containing protease inhibitor cocktail was added. Cells were scraped and lysate was incubated at 4° C. under rotary agitation for 1 h. Lysate was centrifuged at 14,000×g for 10 min at 4° C. Supernatant was transferred to a new tube and an aliquot was taken as the input. […] For Western blots, 10 μg/mL Chicken Anti-FLAG (Aves labs ET-DY100) and IgY control (R&D Systems AB-101-C) antibodies were biotinylated (Thermo Fisher Scientific 90407) and added to the respective conditions. Lysates with antibodies were incubated at 4° C. under rotary agitation overnight. For each mL of lysate, 50 μL of Pierce Protein A/G Magnetic Beads (Mass spectrometry; Thermo Fisher Scientific 88803) or Pierce Streptavidin Magnetic Beads (Western blot; Thermo Fisher Scientific 88817) was washed twice with lysis buffer. Lysates with antibodies were added to the beads and incubated at 4° C. under rotary agitation for 4 h. Beads were washed with lysis buffer 3 times and resuspended in lysis buffer for storage.\n(§2) Magnetic beads were resuspended in 100 mM Tris pH 7.8, reduced, alkylated and digested with trypsin at 37° ° C. overnight. This solution was subjected to solid phase extraction to concentrate the peptides and remove unwanted reagents followed by injection onto a Shimadzu HPLC with fraction collector. Eight fractions were collected and after concentration were injected on a Waters NanoAcquity HPLC equipped with a self-packed Aeris 3 μm C18 analytical column 0.075 mm by 20 cm, (Phenomenex). Peptides were eluted using standard reverse-phase gradients. The effluent from the column was analyzed using a Thermo Orbitrap Elite mass spectrometer (nanospray configuration) operated in a data dependent manner for 54 minutes. The resulting fragmentation spectra were correlated against the known database using Proteome Discover 1.4 (Thermo Fisher Scientific)."}, "PSMB5": {"molecular_target": "T2, PSMB5 (human, UniProt P28074 60-263)", "T2 construct": "also called NP_002788.1", "T2 sequence (P28074 60-263 limits assumed)": "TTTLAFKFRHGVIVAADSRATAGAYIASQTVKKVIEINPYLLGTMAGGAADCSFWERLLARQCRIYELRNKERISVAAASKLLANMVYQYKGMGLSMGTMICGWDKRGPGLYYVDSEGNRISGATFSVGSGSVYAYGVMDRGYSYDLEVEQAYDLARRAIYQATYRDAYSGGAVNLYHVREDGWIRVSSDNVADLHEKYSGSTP", "assay": "co-IP with anti-FLAG, C-FLAG B3GNT2, mass spectrometry", "experimental": "as §1, §2"}, "G3BP1": {"molecular_target": "T3, G3BP1 (human, UniProt Q13283 2-466)", "T3 construct": "also called NP_005745.1", "T3 sequence (Q13283 2-466 limits assumed)": "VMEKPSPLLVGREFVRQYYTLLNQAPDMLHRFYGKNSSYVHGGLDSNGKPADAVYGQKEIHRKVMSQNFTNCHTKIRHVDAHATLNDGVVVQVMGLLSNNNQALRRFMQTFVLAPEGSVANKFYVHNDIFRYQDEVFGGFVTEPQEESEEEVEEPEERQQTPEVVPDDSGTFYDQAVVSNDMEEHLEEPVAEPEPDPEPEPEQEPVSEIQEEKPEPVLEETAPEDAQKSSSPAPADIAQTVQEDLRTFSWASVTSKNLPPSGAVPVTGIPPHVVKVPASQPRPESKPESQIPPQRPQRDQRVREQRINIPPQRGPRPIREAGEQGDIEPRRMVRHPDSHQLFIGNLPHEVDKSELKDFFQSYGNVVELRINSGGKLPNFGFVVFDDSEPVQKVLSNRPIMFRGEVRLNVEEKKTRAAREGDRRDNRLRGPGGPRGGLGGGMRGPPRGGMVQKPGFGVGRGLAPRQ", "assay": "co-IP, anti-FLAG, lysate of cells with C-FLAG B3GNT2; mass spectrometry"}, "NUFIP2": {"molecular_target": "T4, NUFIP2 (human, UniProt Q7Z417 1-695)", "T4 construct": "also called NP_065823.1", "T4 sequence (looked up)": "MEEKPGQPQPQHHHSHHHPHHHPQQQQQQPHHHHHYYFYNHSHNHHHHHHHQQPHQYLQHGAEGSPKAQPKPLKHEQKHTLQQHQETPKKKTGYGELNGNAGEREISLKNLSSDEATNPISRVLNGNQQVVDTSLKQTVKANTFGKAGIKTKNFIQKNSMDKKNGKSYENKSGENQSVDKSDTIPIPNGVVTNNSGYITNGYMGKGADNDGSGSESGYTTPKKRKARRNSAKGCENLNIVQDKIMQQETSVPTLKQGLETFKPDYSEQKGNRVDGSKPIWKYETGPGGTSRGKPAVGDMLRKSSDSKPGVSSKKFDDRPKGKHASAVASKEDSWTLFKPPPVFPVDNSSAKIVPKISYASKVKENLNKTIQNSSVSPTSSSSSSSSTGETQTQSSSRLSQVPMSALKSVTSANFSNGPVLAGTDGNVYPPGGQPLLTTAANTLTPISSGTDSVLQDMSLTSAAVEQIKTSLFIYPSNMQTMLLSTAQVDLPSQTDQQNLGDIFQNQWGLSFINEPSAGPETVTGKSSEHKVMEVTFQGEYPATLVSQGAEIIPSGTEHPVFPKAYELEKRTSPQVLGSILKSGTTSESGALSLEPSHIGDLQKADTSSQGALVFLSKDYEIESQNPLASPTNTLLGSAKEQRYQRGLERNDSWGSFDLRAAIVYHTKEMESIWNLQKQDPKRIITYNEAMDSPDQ", "assay": "co-IP, anti-FLAG, lysate of cells with C-FLAG B3GNT2; mass spectrometry"}}, "data": [{"binder": "C-terminal FLAG tagged B3GNT2 (enzyme, human, UniProt Q9NY97 1-397, looked up, FLAG-tagged ORF overexpressed in cells; pulled down from lysate with mouse anti-FLAG; also called C-FLAG B3GNT2; C-term flag; not shown: C-terminal FLAG tag) MSVGRRRIKLLGILMMANVFIYFIMEVSKSSSQEKNGKGEVIIPKEKFWKISTPPEAYWNREQEKLNRQYNPILSMLTNQTGEAGRLSNISHLNYCEPDLRVTSVVTGFNNLPDRFKDFLLYLRCRNYSLLIDQPDKCAKKPFLLLAIKSLTPHFARRQAIRESWGQESNAGNQTVVRVFLLGQTPPEDNHPDLSDMLKFESEKHQDILMWNYRDTFFNLSLKEVLFLRWVSTSCPDTEFVFKGDDDVFVNTHHILNYLNSLSKTKAKDLFIGDVIHNAGPHRDKKLKYYIPEVVYSGLYPPYAGGGGFLYSGHLALRLYHITDQVHLYPIDDVYTGMCLQKLGLVPEKHKGFRTFDIEEKNKNNICSYVDLMLVHSRKPQEMIDIWSQLQSAHLKC", "values": [{"measurement": "co-IP mass spectrometry count", "setting": "IMMT", "result": 26}]}, {"binder": "C-terminal FLAG tagged B3GNT2 (enzyme, human, UniProt Q9NY97 1-397, looked up, FLAG-tagged ORF overexpressed in A375 cells; pulled down from the lysate with mouse anti-FLAG; also called C-FLAG B3GNT2; C-term flag; not shown: C-terminal FLAG tag) MSVGRRRIKLLGILMMANVFIYFIMEVSKSSSQEKNGKGEVIIPKEKFWKISTPPEAYWNREQEKLNRQYNPILSMLTNQTGEAGRLSNISHLNYCEPDLRVTSVVTGFNNLPDRFKDFLLYLRCRNYSLLIDQPDKCAKKPFLLLAIKSLTPHFARRQAIRESWGQESNAGNQTVVRVFLLGQTPPEDNHPDLSDMLKFESEKHQDILMWNYRDTFFNLSLKEVLFLRWVSTSCPDTEFVFKGDDDVFVNTHHILNYLNSLSKTKAKDLFIGDVIHNAGPHRDKKLKYYIPEVVYSGLYPPYAGGGGFLYSGHLALRLYHITDQVHLYPIDDVYTGMCLQKLGLVPEKHKGFRTFDIEEKNKNNICSYVDLMLVHSRKPQEMIDIWSQLQSAHLKC", "values": [{"measurement": "co-IP/MS count, C-term flag", "setting": "PSMB5", "result": 0}]}, {"binder": "C-terminal FLAG tagged B3GNT2 (enzyme, human, UniProt Q9NY97 1-397, looked up, Overexpressed in cells and pulled down from the lysate with mouse anti-FLAG antibody; also called C-FLAG B3GNT2; C-term flag; not shown: C-terminal FLAG tag) MSVGRRRIKLLGILMMANVFIYFIMEVSKSSSQEKNGKGEVIIPKEKFWKISTPPEAYWNREQEKLNRQYNPILSMLTNQTGEAGRLSNISHLNYCEPDLRVTSVVTGFNNLPDRFKDFLLYLRCRNYSLLIDQPDKCAKKPFLLLAIKSLTPHFARRQAIRESWGQESNAGNQTVVRVFLLGQTPPEDNHPDLSDMLKFESEKHQDILMWNYRDTFFNLSLKEVLFLRWVSTSCPDTEFVFKGDDDVFVNTHHILNYLNSLSKTKAKDLFIGDVIHNAGPHRDKKLKYYIPEVVYSGLYPPYAGGGGFLYSGHLALRLYHITDQVHLYPIDDVYTGMCLQKLGLVPEKHKGFRTFDIEEKNKNNICSYVDLMLVHSRKPQEMIDIWSQLQSAHLKC", "values": [{"measurement": "co-IP mass spectrometry count", "setting": "G3BP1", "result": 33}, {"measurement": "co-IP mass spectrometry count", "setting": "NUFIP2", "result": 5}]}]}
